Residue numbers refer to the chain shown, from its start. Names and notes keep the numbering of the source.
B1: CyPPO13 F373I: CyPPO13 (SEQ ID NO: 4) PPO variant (protein)
chain: MNPATPEPLNAEVVVIGAGISGLTLAWRLQQGLSARGGSPQAVLLAEASSRVGGCISTQSKDGYRWEEGPNSFTPTPALLNLIAEVGLTDQLVLADAKLPRYIYWEGALLPVPLSPAAALGSRLLSVGGKLRALQGLLGFVPPPPGHEETVRQFFRRQLGSEVAERLVEPFTSGVYAGDPDQLSAVAAFPRVAGLEERYGSLFAGALQALRQRPQPSPAAIQPPPKRGQLGNLRQGLQQLPEALAQKLGDSLRLGWRALQLKRAGELYWVGFETPEGSRWVAARQVVLALPAYEAAALLQELNPPASQLLAEILYPPVAVVALAYPQEALPQPLRGFGHLIPRSQGLRTLGTIWASCLFPERAPQGYHSFLSILGGATDAALARRRGIPPIPALSPEERAQIAHAELSQVLLTRRAEPVYLGERLWPRAIPQYTLGHRQRIAQVQAHLASQTPGIWVCANYLDGVALGDCVRRAEALAQQLLSQV
modifications: Synthetic CyPPO13
B2: CyPPO13 A177L + F373L: CyPPO13 (SEQ ID NO: 4) PPO variant (protein)
chain: B1 chain with A177L, I373L
modifications: Synthetic CyPPO13
B3: CyPPO13 A177L + F373I: CyPPO13 (SEQ ID NO: 4) PPO variant (protein)
chain: B1 chain with A177L
modifications: Synthetic CyPPO13
B4: CyPPO13 P316A + V318L: CyPPO13 (SEQ ID NO: 4) PPO variant (protein)
chain: B1 chain with P316A, V318L, I373F
modifications: Synthetic CyPPO13
B5: CyPPO13 A177C: CyPPO13 (SEQ ID NO: 4) PPO variant (protein)
chain: B1 chain with A177C, I373F
modifications: Synthetic CyPPO13
B6: CyPPO13 P316L + V318L: CyPPO13 (SEQ ID NO: 4) PPO variant (protein)
chain: B1 chain with P316L, V318L, I373F
modifications: Synthetic CyPPO13
B7: CyPPO10 F360M: CyPPO10 (SEQ ID NO: 2) PPO variant (protein)
chain: MIEVDVAIVGGGLSGLSVAWRLQRSAPHYSGVLLEASDRLGGNITTQAAEGFVWELGPNSFAPTPALLQLIAEVGLHSELIRGDRHLPRYIYWRGELYPLEPTRPLALATSNLLSPWGKVRAALGALGFVPPYLGSGDESVDSFFRRHLGQEVAERLVAPFVSGVYAGDPQQLSAAAAFRRIAQLEKLGGSLIAGALRLRRQQPPQPKPPAQVQMRPGELGSFREGLAALPRAIAQQLKAPLHLQTPVEAITPEPKGGYLLRSGEQTWHARSVVLATPAYQTAELVAPFQPAIARALATIPYPTVACVVLAYPAGLGRSVRPGFGVLVPRGQGIRTLGTIWSSCLFPQRTPAGWQVFTSMIGGATDPDLASLREEAIVEQVQQDLTRLLDLPAAKARLLGMKVWRRAIPQYIVGYPQQWQQVTHALTQTPGLFLCSNYAEGVALGDRVEHGNRTAAAVAAYLAGGQS
modifications: Synthetic CyPPO10
B8: CyPPO10 F360I: CyPPO10 (SEQ ID NO: 2) PPO variant (protein)
chain: B7 chain with M360I
modifications: Synthetic CyPPO10
B9: CyPPO10 V305M: CyPPO10 (SEQ ID NO: 2) PPO variant (protein)
chain: B7 chain with V305M, M360F
modifications: Synthetic CyPPO10
B10: CyPPO10 F360L: CyPPO10 (SEQ ID NO: 2) PPO variant (protein)
chain: B7 chain with M360L
modifications: Synthetic CyPPO10
B11: CyPPO10 A167C: CyPPO10 (SEQ ID NO: 2) PPO variant (protein)
chain: B7 chain with A167C, M360F
modifications: Synthetic CyPPO10
B12: CyPPO10 F360C: CyPPO10 (SEQ ID NO: 2) PPO variant (protein)
chain: B7 chain with M360C
modifications: Synthetic CyPPO10

How the values were obtained:
CyPPO13 = assay: PPO enzyme activity and IC50 by herbicides, CyPPO13 wild type and variants (MBP-PPO fusion); format: biochemical, Synechococcus sp. JA-3-3Ab; settings: PPO enzyme activity of CyPPO13 protein, wild type = 100
How it was run: (§1)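 Activity was read as protoporphyrin IX fluorescence (405/633 nm), calibrated with a protoporphyrin IX standard curve, after 30 min at room temperature with 50 μM substrate under mineral oil. The buffer was 50 mM Tris-Cl pH 8.0 with glucose oxidase/catalase and a 30 min preincubation. Enzymes were purified MBP-PPO fusions of CyPPO10 or CyPPO13, wild type and variants, expressed in E. coli.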

A. thaliana = assay: Seed germination of A. thaliana transformants on ½ MS media containing herbicides; format: in vivo, Arabidopsis thaliana; settings: T3 lines; 25 μM glufosinate, 25 μM glufosinate+70 nM tiafenacil, or 25 μM glufosinate+30 nM tiafenacil+40 nM saflufenacil; 7 days after sowing
Source text: T3 generation seeds of each transformant were sown in ½ MS media containing herbicides. Col-0 ecotype (wild type Arabidopsis) seeds were used as a control. The kinds of herbicides and concentration are as follows:
In FIGS. 31a to 31c, 10-3 refers to CyPPO10 wild type, 10FM-4-7 to the CyPPO10 F360M transgenic line, 10FL-1-9 to the CyPPO10 F360L transgenic line, 10FC-3-5 to the CyPPO10 F360C transgenic line, 10AC-5-4 to the CyPPO10 A167C transgenic line, 13-1 to CyPPO13 wild type, 13FM-3-1 to the CyPPO13 F373M transgenic line, 13FC-1-1 to the CyPPO13 F373C transgenic line, 13FI-2-1 to the CyPPO13 F373I transgenic line, 13AC-1-3 to the CyPPO13 A177C transgenic line, CyPPO13_ALFL to the CyPPO13 A177L+F373L transgenic line, and CyPPO13_ALFI to the CyPPO13 A177L+F373I transgenic line, respectively.

[1] = system: PPO-deficient BT3 E. coli (ΔPPO); assay: Herbicide tolerance of PPO-deficient BT3 E. coli transformed with CyPPO10/CyPPO13 wild type or mutant genes on herbicide-containing LB agar; format: cell-based; set-up: key: the level of herbicide tolerance of the wild type was represented by “−”; if higher, adding “+” to the max “+++++”; if higher, adding “+” to the max “+++++”; if higher, adding “+” to the max “+++++”; if higher, adding “+” to the max “+++++”; if higher, adding “+” to the max “+++++”
Source text: In order to enhance PPO-inhibiting herbicide tolerance of CyPPO10 and CyPPO13, the amino acids interacting with herbicide, as identified in the Example 3, were mutated. After PPO-deficient BT3 E. coli (ΔPPO) was transformed with a PPO gene having such mutation, and then cultured with PPO-inhibiting herbicide, to observe the growth of transformed E. coli, as follows:
The pET303-CyPPO10 or pET303-CyPPO13 plasmids prepared in the Example 4, and plasmids containing each mutant gene, were transformed into BT3 competent cell by a heat shock method, and cultured in a LB agar medium containing ampicillin (100 μg/ml).
For seed culture of BT3 transformants, a single colony thereof was cultured in 3 ml of LB broth (LPSS) containing ampicillin for 12 hours or more, and 50˜100 μl of the cultured solution was further cultured until absorbance (OD600) reaches 0.5 to 1. Then, the obtained cultured solution was diluted with LB broth to adjust absorbance (OD600) to 0.5, and was diluted again 5 times by a factor of one tenth with LB broth.
LB (25 g/L), Bacto agar (12 g/L), ampicillin (100 μg/ml) and various herbicides (0˜200 μM) were mixed, to prepare herbicide-containing media.
Ten microliters of the diluted solution were dropped on the herbicide-containing media, and the media were incubated with light for 16-20 hours at 37° C. The growth level and PPO-inhibiting herbicide tolerance of BT3 transformed with each gene were evaluated.
The herbicide tolerance was evaluated relatively compared to CyPPO wild type, and shown in following Tables 8 to 11 and FIGS. 11 to 29:
In the Tables 8 to 11, the level of herbicide tolerance of the wild type was represented by “−”, and the level of herbicide tolerance was graduated by representing the equal level of tolerance by “−”, and if higher, adding “+” to the max “+++++”.
FIGS. 11 to 19 (wild type and variants of CyPPO10) and FIGS. 20 to 29 (wild type and variants of CyPPO13) show the results of culturing E. coli transformed with CyPPO genes (wild type and variant type), and the concentration described on the top is concentration of herbicide treated. Six columns of each concentration were sequentially diluted 5 times by a factor of one tenth with the E. coli culture solution to the right, and the most left column is the result of E. coli culture solution OD600=0.5.

CyPPO10 = assay: PPO enzyme activity and IC50 by herbicides, CyPPO10 wild type and variants (MBP-PPO fusion); format: biochemical, Thermosynechococcus elongatus BP-1; settings: PPO enzyme activity of CyPPO10 protein, wild type = 100
How it was run: as §1

[2] = BT3 E. coli with CyPPO13 gene, relative to CyPPO13 wild type
[3] = BT3 E. coli with CyPPO10 gene, relative to CyPPO10 wild type

Row | Molecule | Activity (%) (CyPPO13) | Seed germination in media containing herbicides (A. thaliana) | Activity (%) (CyPPO10) | further results
1 | B1 | 83 | germinated |  | 
2 | B2 | 68 | germinated |  | 
3 | B3 | 66 | germinated |  | 
4 | B4 |  |  |  | Herbicide tolerance level, Acifluorfen (up to 200 μM) [1, 2]: +++; Herbicide tolerance level, Fomesafen (up to 200 μM) [1, 2]: −; Herbicide tolerance level, Pyraclonil (up to 200 μM) [1, 2]: −; Herbicide tolerance level, Pyraflufen-ethyl (up to 200 μM) [1, 2]: +; Herbicide tolerance level, Sulfentrazone (up to 200 μM) [1, 2]: −
5 | B5 | 98 | germinated |  | 
6 | B6 |  |  |  | Herbicide tolerance level, Acifluorfen (up to 200 μM) [1, 2]: +++; Herbicide tolerance level, Fomesafen (up to 200 μM) [1, 2]: ++; Herbicide tolerance level, Pyraclonil (up to 200 μM) [1, 2]: −; Herbicide tolerance level, Pyraflufen-ethyl (up to 200 μM) [1, 2]: +; Herbicide tolerance level, Sulfentrazone (up to 200 μM) [1, 2]: +
7 | B7 |  | germinated | 93 | 
8 | B8 |  | germinated | 67 | 
9 | B9 |  |  | 100 | Herbicide tolerance level, Acifluorfen (up to 200 μM) [1, 3]: +++; Herbicide tolerance level, Fomesafen (up to 200 μM) [1, 3]: ++++; Herbicide tolerance level, Pentoxazone (up to 200 μM) [1, 3]: ++++; Herbicide tolerance level, Pyraclonil (up to 200 μM) [1, 3]: +++; Herbicide tolerance level, Pyraflufen-ethyl (up to 200 μM) [1, 3]: +; Herbicide tolerance level, Saflufenacil (up to 200 μM) [1, 3]: +; Herbicide tolerance level, Tiafenacil (up to 200 μM) [1, 3]: ++
10 | B10 |  | germinated | 59 | 
11 | B11 |  | germinated | 98 | 
12 | B12 |  | germinated |  | 

Reference: patent US11466286B2, “Methods and compositions for conferring and/or enhancing herbicide tolerance using protoporphyrinogen oxidase or variant thereof” (FarmHannong Co., Ltd., priority 2016, dated 2022)
